# In publication PMC5758917 (Nucleic Acids Research, 2017):
# T1: GST-E1 (HPV 11 E1 fused to GST) (human papillomavirus type 11, UniProt P04014 1-649)
# T1 sequence: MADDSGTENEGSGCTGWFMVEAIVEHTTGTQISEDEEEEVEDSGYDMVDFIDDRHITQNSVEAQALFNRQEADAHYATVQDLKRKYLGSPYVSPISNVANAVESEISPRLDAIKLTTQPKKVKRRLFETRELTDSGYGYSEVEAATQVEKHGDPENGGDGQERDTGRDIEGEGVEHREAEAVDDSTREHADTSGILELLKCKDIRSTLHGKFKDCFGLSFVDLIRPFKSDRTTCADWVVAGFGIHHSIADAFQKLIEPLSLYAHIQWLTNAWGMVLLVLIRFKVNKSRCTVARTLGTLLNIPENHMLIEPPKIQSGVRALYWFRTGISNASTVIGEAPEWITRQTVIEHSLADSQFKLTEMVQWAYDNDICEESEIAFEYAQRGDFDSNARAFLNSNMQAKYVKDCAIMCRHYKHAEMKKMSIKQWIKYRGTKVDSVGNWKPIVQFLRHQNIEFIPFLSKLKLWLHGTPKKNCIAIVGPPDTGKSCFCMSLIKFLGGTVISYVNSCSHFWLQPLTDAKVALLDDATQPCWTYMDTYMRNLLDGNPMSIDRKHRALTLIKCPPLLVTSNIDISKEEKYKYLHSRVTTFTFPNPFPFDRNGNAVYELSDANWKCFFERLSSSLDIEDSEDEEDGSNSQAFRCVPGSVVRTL
# B1: p50 subunit of pol δ (natural protein)
# chain: not shown
# Molecular target: T1, GST-E1 (HPV 11 E1 fused to GST)
# Assay: far-Western, overlay or dot blot
binder,measurement,value
B1,binding result,binds
